This note sets out measurements from patent publication US20240360195A1 (HELMHOLTZ ZENTRUM M NCHEN DEUTSCHES FORSCHUNGSZENTRUM F R …, published 2024).

For the experiment, the target named is T1, human carbonic anhydrase XII (CA12) on A549 lung cancer cells (human, UniProt O43570 25-354).
T1 construct: whole, on cells; No recombinant protein was used; also called CA-XII; CA XII
Put plainly: flow cytometry on A549 cells, serial dilution, Cy5-labeled donkey anti-human IgG secondary, pH 7.4. Here is the method: 50.000 A549 cells were incubated with a serial dilution of Monomers or Dimers (6A10). After washing, cells were incubated with a Cy5-labeled secondary antibody (donkey anti-human IgG light and heavy chain). Binding of the secondary antibody was analyzed with a BD FACSCanto and the DIVA software. RU=relative light units.
After washing, cells were incubated with a Cy5-labeled secondary antibody (donkey anti-human IgG light and heavy chain). Binding of the secondary antibody was analyzed with a BD FACSCanto and the DIVA software. RU=relative light units.
CA12-positive A549 cells were incubated with different amounts of Fab6A10 dimers or Fab6A 10 monomers at the indicated pH, followed by an incubation of a suitable Cy5-labeled secondary antibody at neutral pH (approx. 7.2).
For orientation: In flow cytometry, cells or beads pass a laser one at a time.

T1 sequence (O43570 25-354): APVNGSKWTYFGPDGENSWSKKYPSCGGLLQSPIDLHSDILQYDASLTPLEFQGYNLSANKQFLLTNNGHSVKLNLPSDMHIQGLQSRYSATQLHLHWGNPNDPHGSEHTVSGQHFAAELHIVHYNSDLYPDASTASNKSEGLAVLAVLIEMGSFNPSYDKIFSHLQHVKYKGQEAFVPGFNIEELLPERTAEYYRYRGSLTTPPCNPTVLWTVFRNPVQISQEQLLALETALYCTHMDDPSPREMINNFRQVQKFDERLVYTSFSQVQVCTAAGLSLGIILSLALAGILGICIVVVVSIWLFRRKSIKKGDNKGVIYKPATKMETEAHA

B1: Fab6A10 dimer (other)
heavy: QVQLKESGPGLVQPSETLSLTCTVSGFSLTTYSVSWVRQPSGKGPEWMGRMWYDGDTVYNSALKSRLSISRDTSKNQVFLKMNSLETDETGTYYCTRDFGYFDGSSPFDYWGQGVMVTVSSASTKGPSVFPLAPSSKSTSGGTAALGCLVKDYFPEPVTVSWNSGALTSGVHTFPAVLQSSGLYSLSSVVTVPSSSLGTQTYICNVNHKPSNTKVDKKVEPKSCDKTHT
light: RCPVDIVLTQSPATLSVTPGESVSLSCRASQGISTSIHWYQQKSNESPRLLIKFASQSISGIPSRFSGSGSGTDFTLSINRVESEDFSVYFCQQTYSLPYTFGAGTKLELKRTVAAPSVFIFPPSDEQLKSGTASVVCLLNNFYPREAKVQWKVDNALQSGNSQESVTEQDSKDSTYSLSSTLTLSKADYEKHKVYACEVTHQGLSSPVTKSFNRGEC
modifications: additional non-naturally occurring cysteine at the N-terminus of the VL region (N-terminus RCPVDIVLTQ..., SEQ ID NO: 18) forms a disulfide bond with the same cysteine of the second Fab monomer
notes: also called 6A10 Fab dimers; 6A10Fab dimers
On to B1, for which the binding result was “binds”.
